Consider eleven molecules from patent publication US20240166738A1 (priority 2021, published 2024).

The assay addresses GST-TMEM106B (truncated, comprising amino acids 122-210 of SEQ ID NO:1) (Homo sapiens, UniProt Q9NUM4). The assay can be described thus: Pre-mix epitope binning of anti-TMEM106B antibodies (Carterra / Lake Pharma). Also on record: key to epitope bin: Bin 1: competes for binding to the same or overlapping TMEM106B region as the TM1, TM17, TM22, TM26, TM79, and/or TM82 antibodies; Bin 2: competes for binding to the same or overlapping TMEM106B region as the TM3, TM9, TM10, TM11, TM12, TM13, TM18, TM19, TM21, TM24, TM25, TM32, TM35, TM37, TM42, TM45, TM48, TM54, TM59, TM60, TM61, and/or TM76 antibodies; Bin 3: competes for binding to the same or overlapping TMEM106B region as the TM7, TM15, TM83, and/or TM84 antibodies; Bin 4: competes for binding to the same or overlapping TMEM106B region as the TMS, TM28, TM29, TM30, TM63, TM64, TM72, TM78, TM80, TM86, and/or TM88 antibodies; Bin 5: does not bind to a truncated TMEM106B comprising amino acids 122-210 of SEQ ID NO:1. Particulars: for epitope bin: competition for binding to truncated GST-TMEM106B (amino acids 122-210); for Binding Community/Bin: epitope bin number, pre-mix binning on truncated GST-TMEM106B. The assay is classed as binding. As for the experimental part:
(§1) Monoclonal anti-TMEM106B antibodies were immobilized to a CMD 50M chip (Xantec # SPMXCMD5OM lot# SCCMD50M0416). The running buffer was HBS-EP+ with 1 mg/mL BSA. The GST-TMEM106B (truncated, comprising amino acids 122-210 of SEQ ID NO:1) antigen was prepared at a final concentration of 55 nM (corresponding to 2 μg/mL) and mixed with the competing analyte anti-TMEM106B antibodies at a final concentration of 333 nM (corresponding to 50 μg/mL) or compared to a buffer control. Samples were injected for 5 minutes over the array and regenerated after every cycle with 1 minute of two parts Pierce IgG-Elution buffer (ThermoFisher Cat#21004) and 1 part of 10 mM Glycine, pH 2.0 (Carterra).
Anti-TMEM106B antibodies sorted into various competing bins and resulting binning profiles. […] Antibodies within Bin 3 or Bin 4 partially block Bin 2 antibodies.
as §1, with “SPMXCMD50M” for “SPMXCMD5OM”, “lmg/ml” for “1 mg/mL”, “(truncated)” for “(truncated, comprising amino acids 122-210 of SEQ ID NO:1)”, “μg/ml)” for “μg/mL)”

Sequence of GST-TMEM106B (truncated, comprising amino acids 122-210 of SEQ ID NO:1) (Q9NUM4 122-210): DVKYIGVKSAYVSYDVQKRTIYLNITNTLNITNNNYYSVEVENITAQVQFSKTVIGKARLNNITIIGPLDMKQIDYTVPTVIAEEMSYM

B1: TM-17: anti-TMEM106B monoclonal antibody; CDR-H1-3 SEQ ID NO: 17, 51, 94; CDR-L1-3 SEQ ID NO: 132, 172, 196 (antibody, V domains shown)
VH: QVQLQQSGAELIRPGTSVKVSCKASGYAFTDYLIEWVKQRPGQGLEWIGVINPGSGGTNYNEKFKGKAKLTADKSSSTAYMQLSSLTSEDSAVYFCVRSSYGVYVAYPMDYWGQGTSVTVSS
VL: DIQMTQSPSSLSASLGERVSLTCRASQDIGSNLNWLQQEPDGTIKRLIYATSSLDSGVPKRFSGSRSGSDYSLTISSLESEDFVDYYCLQYASSPRTFGGGTKLEIK
Regarding B1, the epitope bin entry is on record as “Bin 1” and the “Binding Community/Bin” value was determined as 1.

B2: TM-24: anti-TMEM106B monoclonal antibody; CDR-H1-3 SEQ ID NO: 12, 45, 88; CDR-L1-3 SEQ ID NO: 140, 170, 204 (antibody, V domains shown)
VH: QVQLKQSGPGQVQPSQSLSITCTVSGFSLSDYGVHWVRQSPGKGLEWLGVIWNNGNTDYNAAFISRLSINKDNSKSQVFFKMTSLQADDTAIYYCVRSLRPLHFDYWGQGTTVTVSS
VL: DIVMTQSPSSLTMSVGQKVTMNCKSSQSLLNSNNQQNYLAWYQQKPGQSPKLLVYFASIRESGVPDRFIGSGSGTDFTLTINSVQAEDLADYFCQQHYSTPFTFGSGTKLEIR
B2: the epitope bin entry is recorded as “Bin 2” and the “Binding Community/Bin” value came to 2.

B3: TM-1: anti-TMEM106B monoclonal antibody; CDR-H1-3 SEQ ID NO: 2, 35, 78; CDR-L1-3 SEQ ID NO: 120, 160, 184 (antibody, V domains shown)
VH: QVQLQQSGAELVRPGTSVKVSCKASGYAFTNYLIEWVKQRPGQGLEWIGVINPGSGGTKYNEKLKGKATLTADKSSSTAYMQLSSLTSVDSAVYFCARRGYTIYDFYAMDYWGQGTSVTVSS
VL: DVLMTQTPLSLPVSLGDHASISCRSSQSIVYNNGNTYLEWYLQKPGQSPKLLIYKVSNRFSGVPDRFSGSGSGTDFTLKISRVEAEDLGVYYCFQVSHVPFTFGSGTKLEIK
As for B3, the epitope bin result is on record as “Bin 1” and the “Binding Community/Bin” value was determined as 1.

B4: TM-32: anti-TMEM106B monoclonal antibody; CDR-H1-3 SEQ ID NO: 13, 63, 106; CDR-L1-3 SEQ ID NO: 145, 160, 200 (antibody, V domains shown)
VH: EVQLQQSGAELVRPGASVRLSCIASGFNIKDYYMYWVKQRPEQGLEWIGRIDPEDGDTEYVPKFQGKATMTADTSSNTAYLQLSSLTSEDIGVYYCTTRTWDLYYAVDNWGQGTSVTVSS
VL: DVLMTQTPLSLPVSLGDQASISCRSSQNIVHSNGNTYLEWYLQKPGQSPKLLIDKVSNRFSGVPDRFSGSGSGTDFTLKISRVEAEDLGIYYCFQGSHVPFTFGSGTKLEIK
For the molecule B4, the epitope bin entry is on record as “Bin 2” and the “Binding Community/Bin” value was 2.

B5: TM-48: anti-TMEM106B monoclonal antibody; CDR-H1-3 SEQ ID NO: 32, 74, 116; CDR-L1-3 SEQ ID NO: 155, 160, 218 (antibody, V domains shown)
VH: QVQLQQSGPELVKPGASVKLSCKASGYTFTSYDINWVKQRPGQGLEWIGWIYPRDGNTQYIEKLKGKATLTVDTSSSTAYMELHSLTSEDSAVYFCARWIFYAMDYWGQGTSVTVSS
VL: DVLMTQTPLSLPVSLGNQASISCRSSQSIVHGNGNTYLEWYLQKPGQSPKLLIYKVSNRFSGVPDRFSGSGSGTDFTLKISRVEAEDLGVYYCFQGSHLPYTFGGGTKLEIK
For the molecule B5, the epitope bin entry is listed as “Bin 2” and the “Binding Community/Bin” value turned out to be 2.

B6: TM-54: anti-TMEM106B monoclonal antibody; VH SEQ ID NO: 464, VL SEQ ID NO: 500 (antibody, V domains shown)
VH: QVQMQQSGPVLVKPGASVTLSCKASGYTFTTYDLNWVKQRPGQGLEWIGWIYPRGGSTEYNEKFKGKATLTVDTSSSTAYMELHSLTSEDSAVYFCAKYSIYAMDYWGQGTSVTVSS
VL: DVLMTQTPLSLPVSLGDQASISCRSSQSIVHGNGNTYLEWYLQKPGQSPKLLIYKVSNRFSGVPDRFSGSGSGTDFTLKISRVEAEDLGVYYCFQGSHVPWTFGGGTKLEMK
modifications: Variable Heavy Chain -- TM-54; Variable Light Chain -- TM-54
On to B6, for which the epitope bin entry is “Bin 2” and the “Binding Community/Bin” value is on record as 2.

B7: TM-35: anti-TMEM106B monoclonal antibody; CDR-H1-3 SEQ ID NO: 24, 66, 109; CDR-L1-3 SEQ ID NO: 148, 160, 194 (antibody, V domains shown)
VH: QVQLQQSGPELVRPGTSVKISCKAPGYTFTRHWMQWVRQRPGQGLEWIGEILPGSNNIYYNEKVKGKATLTVDTSSSTSYMQLSSLTSEDSAVYFCARSLYDYDGVFAYWGQGTLVTVSA
VL: DVLMTQIPLSLPVSLGDQASISCRSSQSIVHRNGNTYLEWYLQKPGQSPKLLIYKVSNRFSGVPDRFSGSGSGTDFTLKISRVEAEDLGVYYCFQGSHVPYTFGGGTKLEIK
As to B7, the epitope bin result was “Bin 2” and the “Binding Community/Bin” value stood at 2.

B8: TM-25: anti-TMEM106B monoclonal antibody; CDR-H1-3 SEQ ID NO: 10, 57, 100; CDR-L1-3 SEQ ID NO: 137, 168, 205 (antibody, V domains shown)
VH: EVQLVESGGDLVKPGGSLRLSCAASGFTFSGYGMSWIRQTPDKRLEWVATISSGGRYTVYPDSVKGRFTMSRDNVKNTLYLQMSSLKSEDTALYYCARDNFYSYAMDYWGLGTSVTVSA
VL: DIVMTQAAFSNPVTLGTSASISCRSSKSLLHSNGITYLFWYLQKPGQSPQLLIYQMSNLASGVPDRFSSSGSGTDFTLRISRVEAEDVGVYYCAQNLELWTFGGGTKLEIK
Take B8: the epitope bin result is “Bin 2” and the “Binding Community/Bin” value is given as 2.

B9: TM-26: anti-TMEM106B monoclonal antibody; CDR-H1-3 SEQ ID NO: 2, 56, 99; CDR-L1-3 SEQ ID NO: 139, 176, 203 (antibody, V domains shown)
VH: QVQLQQSGAELIRPGTSVKVSCKASGYAFTNYLIEWVKKRPGQGLEWIGVINPGSGITNYNEKFKGKATLTADKSSSTAYMQLSSLTSEDSAVYFCARSDFITTVVADYWGQGTTVTVSS
VL: DIVVTQTPLSLPVSFGDQVSISCRSSQSLTNYYGNTYLSWYLHKPGQSPQLLIYGISNRFSGVPDRFSGSGSGTDFTLKISTIKPEDLGMYYCLQGTHQPRTFGGGTKLEIK
Regarding B9, the epitope bin entry is given as “Bin 1” and the “Binding Community/Bin” value is 1.

B10: TM-82: anti-TMEM106B monoclonal antibody; VH SEQ ID NO: 487, VL SEQ ID NO: 522 (antibody, V domains shown)
VH: QVQLQQSGAELVRPGTSVRVSCKASGYAFTNYLIEWIKQRPGQGLEWIGVINPGSGITDYSEKFKGKARLTADKSSSTAYMQLSSLTSDDSAVYFCTRSPFITTVVADYWGQGTTVTVSS
VL: DVVVTQTPLSLPVSFGDQVSISCRSSQSLANTYGNTYLSWYLHTPGQSPQLLIFGISNRFSGVPDRFSGSGSGTDFTLKISTIKPEDLGVYYCLQGTHPPRTFGGGTKLEMK
modifications: Variable Heavy Chain -- TM-82; Variable Light Chain -- TM-82
For the molecule B10, the epitope bin entry is given as “Bin 1” and the “Binding Community/Bin” value was 1.

B11: TM-79: anti-TMEM106B monoclonal antibody; VH SEQ ID NO: 484, VL SEQ ID NO: 519 (antibody, V domains shown)
VH: EVQLQQSGPELVKPGASVKMSCKASGYTFTNYVMHWLKQKPGQGLEWIAHITPHNDGTKYNEKFKGKATLTSDRSSSTAYMELNSLTSEDSAIYYCARSGQFGRGDYFHYWGQGTTVTVSS
VL: DIVLTQSPASLAVSLGQRATISCRASKSVSTSGSIYIHWYQQKPGQPPKLLIYLTSNLESGVPARFSGSGSGTDFTLNIHPVEEEDAATYYCQHSGELPWTFGGGARLEIK
modifications: Variable Heavy Chain -- TM-79; Variable Light Chain -- TM-79
For the molecule B11, the epitope bin result is on record as “Bin 1” and the “Binding Community/Bin” value was found to be 1.
